Starred links: 1 amine or outer side, 2 acyl side, 3 side chain; linkers in the order of their positions; H or OH if unused. Non-standard residues stand in square brackets, D forms with d. No end group written: not given here. Pqa = 4-oxo-6-(1-piperazinyl)-3(4H)-quinazoline-acetic acid, O=C(Cn1cnc2ccc(N3CCN([*:1])CC3)cc2c1=O)[*:2]; NMeR = CN[C@@H](CCCNC(=N)N)C(=O)O
T1: human NPY2 receptor (human, UniProt P49146 1-381)
T1 sequence (looked up): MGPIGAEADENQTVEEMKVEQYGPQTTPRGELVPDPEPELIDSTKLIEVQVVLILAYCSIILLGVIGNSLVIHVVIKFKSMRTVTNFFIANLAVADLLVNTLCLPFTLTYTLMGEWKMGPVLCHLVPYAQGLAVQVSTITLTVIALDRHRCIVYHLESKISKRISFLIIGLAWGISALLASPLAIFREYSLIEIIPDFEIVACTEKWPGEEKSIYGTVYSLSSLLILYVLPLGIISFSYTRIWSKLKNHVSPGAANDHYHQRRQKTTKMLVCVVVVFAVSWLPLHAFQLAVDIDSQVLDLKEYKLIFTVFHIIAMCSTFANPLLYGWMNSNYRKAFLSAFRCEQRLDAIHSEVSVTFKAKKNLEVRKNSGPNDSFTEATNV

T2: Y5R
T2 sequence (Q15761 whole entry, species assumed, looked up): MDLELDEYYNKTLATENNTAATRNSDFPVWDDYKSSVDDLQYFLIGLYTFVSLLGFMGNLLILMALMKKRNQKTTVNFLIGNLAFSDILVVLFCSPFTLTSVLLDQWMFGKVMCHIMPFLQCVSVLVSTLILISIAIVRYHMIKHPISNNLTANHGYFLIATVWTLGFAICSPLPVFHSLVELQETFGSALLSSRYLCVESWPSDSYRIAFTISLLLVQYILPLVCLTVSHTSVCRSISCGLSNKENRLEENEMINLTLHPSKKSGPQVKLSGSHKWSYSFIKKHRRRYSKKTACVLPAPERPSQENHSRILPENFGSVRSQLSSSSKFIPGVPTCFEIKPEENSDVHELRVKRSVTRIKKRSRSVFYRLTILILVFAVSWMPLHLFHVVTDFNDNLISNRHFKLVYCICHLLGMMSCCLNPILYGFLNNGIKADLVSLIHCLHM


What was measured:
Test in all cases: cell-based or functional assay
human NPY2 receptor = biological target: T1, human NPY2 receptor
Y1R = biological target: Y1R
Y4R = biological target: Y4R
Y5R = biological target: T2, Y5R

Y1R, sequence (P25929 whole entry): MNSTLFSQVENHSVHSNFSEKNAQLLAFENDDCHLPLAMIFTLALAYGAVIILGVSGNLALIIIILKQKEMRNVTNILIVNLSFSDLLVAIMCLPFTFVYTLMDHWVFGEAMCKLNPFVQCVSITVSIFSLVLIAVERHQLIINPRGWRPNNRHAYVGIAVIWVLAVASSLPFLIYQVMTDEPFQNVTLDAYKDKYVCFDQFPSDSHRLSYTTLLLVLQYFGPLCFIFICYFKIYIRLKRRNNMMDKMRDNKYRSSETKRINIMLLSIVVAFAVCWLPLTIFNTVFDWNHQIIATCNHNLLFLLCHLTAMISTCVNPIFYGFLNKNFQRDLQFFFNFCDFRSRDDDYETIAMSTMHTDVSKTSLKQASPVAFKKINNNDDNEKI

Binder	Y2R EC50 (nM) FLIPR (human NPY2 receptor) [nM]	Y2R EC50 (nM) cAMP (human NPY2 receptor) [nM]	Y1R EC50 (nM) FLIPR (Y1R) [nM]	Y4R EC50 (nM) FLIPR (Y4R) [nM]	Y5R EC50 (nM) FLIPR (Y5R) [nM]
IKXRHYLNLVTRQRX (Pqa as third residue; (NMe)Arg as penultimate residue; 2-Nal (2-Naphthyl Alanine) as C-terminal residue; C-terminal amide (NH2)) [H-Ile-Lys-Pqa-Arg-His-Tyr-Leu-Asn-Leu-Val-Thr-Arg-Gln-(NMe)Arg-2-Nal-NH2]	4.11	2.4	–	–	–
H-IK[Pqa]RHYLNWVTRQ[NMeR]Y-NH2 [H-Ile-Lys-Pqa-Arg-His-Tyr-Leu-Asn-Trp-Val-Thr-Arg-Gln-(NMe)Arg-Tyr-NH2]	0.44	0.25	298	> 5000	> 5000
IXXRHYLNWVTRQRY (Nle as second residue; Pqa as third residue; (NMe)Arg as penultimate residue; C-terminal amide (NH2)) [H-Ile-Nle-Pqa-Arg-His-Tyr-Leu-Asn-Trp-Val-Thr-Arg-Gln-(NMe)Arg-Tyr-NH2]	8.1	0.108	> 5000	> 5000	> 5000
IKXRHYLNWVTRQRY (HELM PEPTIDE1{[ac].I.K.[O=C(Cn1cnc2ccc(N3CCN([*:1])CC3)cc2c1=O)[*:2]].R.H.Y.L.N.W.V.T.R.Q.[meR].[O=C([C@H](Cc1c(F)cc(O)cc1F)N[*:1])[*:2]].[am]}$$$$V2.0; SMILES CC[C@H](C)[C@H](NC(C)=O)C(=O)N[C@@H](CCCCN)C(=O)N1CCN(c2ccc3ncn(CC(=O)N[C@@H](CCCNC(=N)N)C(=O)N[C@@H](Cc4c[nH]cn4)C(=O)N[C@@H](Cc4ccc(O)cc4)C(=O)N[C@@H](CC(C)C)C(=O)N[C@@H](CC(N)=O)C(=O)N[C@@H](Cc4c[nH]c5ccccc45)C(=O)N[C@H](C(=O)N[C@H](C(=O)N[C@@H](CCCNC(=N)N)C(=O)N[C@@H](CCC(N)=O)C(=O)N(C)[C@@H](CCCNC(=N)N)C(=O)N[C@@H](Cc4c(F)cc(O)cc4F)C(N)=O)[C@@H](C)O)C(C)C)c(=O)c3c2)CC1) [Ac-Ile-Lys-Pqa-Arg-His-Tyr-Leu-Asn-Trp-Val-Thr-Arg-Gln-(NMe)Arg-2,6-F2-Tyr-NH2]	1.44	0.07	> 5000	> 5000	5810
IKXRHYLNWVTRQRY (HELM PEPTIDE1{[CCCCC(=O)[*:2]].I.K.[O=C(Cn1cnc2ccc(N3CCN([*:1])CC3)cc2c1=O)[*:2]].R.H.Y.L.N.W.V.T.R.Q.[meR].Y.[am]}$$$$V2.0; SMILES CCCCC(=O)N[C@H](C(=O)N[C@@H](CCCCN)C(=O)N1CCN(c2ccc3ncn(CC(=O)N[C@@H](CCCNC(=N)N)C(=O)N[C@@H](Cc4c[nH]cn4)C(=O)N[C@@H](Cc4ccc(O)cc4)C(=O)N[C@@H](CC(C)C)C(=O)N[C@@H](CC(N)=O)C(=O)N[C@@H](Cc4c[nH]c5ccccc45)C(=O)N[C@H](C(=O)N[C@H](C(=O)N[C@@H](CCCNC(=N)N)C(=O)N[C@@H](CCC(N)=O)C(=O)N(C)[C@@H](CCCNC(=N)N)C(=O)N[C@@H](Cc4ccc(O)cc4)C(N)=O)[C@@H](C)O)C(C)C)c(=O)c3c2)CC1)[C@@H](C)CC) [Pentoyl-Ile-Lys-Pqa-Arg-His-Tyr-Leu-Asn-Trp-Val-Thr-Arg-Gln-(NMe)Arg-Tyr-NH2]	0.873	0.51	> 5000	> 5000	> 5000
IKXRHYLNWVTRQRY (HELM PEPTIDE1{[CC(C)(C)C(=O)[*:2]].I.K.[O=C(Cn1cnc2ccc(N3CCN([*:1])CC3)cc2c1=O)[*:2]].R.H.Y.L.N.W.V.T.R.Q.[meR].Y.[am]}$$$$V2.0; SMILES CC[C@H](C)[C@H](NC(=O)C(C)(C)C)C(=O)N[C@@H](CCCCN)C(=O)N1CCN(c2ccc3ncn(CC(=O)N[C@@H](CCCNC(=N)N)C(=O)N[C@@H](Cc4c[nH]cn4)C(=O)N[C@@H](Cc4ccc(O)cc4)C(=O)N[C@@H](CC(C)C)C(=O)N[C@@H](CC(N)=O)C(=O)N[C@@H](Cc4c[nH]c5ccccc45)C(=O)N[C@H](C(=O)N[C@H](C(=O)N[C@@H](CCCNC(=N)N)C(=O)N[C@@H](CCC(N)=O)C(=O)N(C)[C@@H](CCCNC(=N)N)C(=O)N[C@@H](Cc4ccc(O)cc4)C(N)=O)[C@@H](C)O)C(C)C)c(=O)c3c2)CC1) [Trimethylacetyl-Ile-Lys-Pqa-Arg-His-Tyr-Leu-Asn-Trp-Val-Thr-Arg-Gln-(NMe)Arg-Tyr-NH2]	1.1	0.26	> 5000	> 5000	> 5000
IKXRHYLNWVTRQRY (HELM PEPTIDE1{[O=C(CC1CCCCC1)[*:2]].I.K.[O=C(Cn1cnc2ccc(N3CCN([*:1])CC3)cc2c1=O)[*:2]].R.H.Y.L.N.W.V.T.R.Q.[meR].Y.[am]}$$$$V2.0; SMILES CC[C@H](C)[C@H](NC(=O)CC1CCCCC1)C(=O)N[C@@H](CCCCN)C(=O)N1CCN(c2ccc3ncn(CC(=O)N[C@@H](CCCNC(=N)N)C(=O)N[C@@H](Cc4c[nH]cn4)C(=O)N[C@@H](Cc4ccc(O)cc4)C(=O)N[C@@H](CC(C)C)C(=O)N[C@@H](CC(N)=O)C(=O)N[C@@H](Cc4c[nH]c5ccccc45)C(=O)N[C@H](C(=O)N[C@H](C(=O)N[C@@H](CCCNC(=N)N)C(=O)N[C@@H](CCC(N)=O)C(=O)N(C)[C@@H](CCCNC(=N)N)C(=O)N[C@@H](Cc4ccc(O)cc4)C(N)=O)[C@@H](C)O)C(C)C)c(=O)c3c2)CC1) [Cyclohexylacetyl-Ile-Lys-Pqa-Arg-His-Tyr-Leu-Asn-Trp-Val-Thr-Arg-Gln-(NMe)Arg-Tyr-NH2]	1.67	1.37	> 5000	> 5000	> 5000
IKXRHYLNWVTRQRY (HELM PEPTIDE1{[O=C(c1ccccc1)[*:2]].I.K.[O=C(Cn1cnc2ccc(N3CCN([*:1])CC3)cc2c1=O)[*:2]].R.H.Y.L.N.W.V.T.R.Q.[meR].Y.[am]}$$$$V2.0; SMILES CC[C@H](C)[C@H](NC(=O)c1ccccc1)C(=O)N[C@@H](CCCCN)C(=O)N1CCN(c2ccc3ncn(CC(=O)N[C@@H](CCCNC(=N)N)C(=O)N[C@@H](Cc4c[nH]cn4)C(=O)N[C@@H](Cc4ccc(O)cc4)C(=O)N[C@@H](CC(C)C)C(=O)N[C@@H](CC(N)=O)C(=O)N[C@@H](Cc4c[nH]c5ccccc45)C(=O)N[C@H](C(=O)N[C@H](C(=O)N[C@@H](CCCNC(=N)N)C(=O)N[C@@H](CCC(N)=O)C(=O)N(C)[C@@H](CCCNC(=N)N)C(=O)N[C@@H](Cc4ccc(O)cc4)C(N)=O)[C@@H](C)O)C(C)C)c(=O)c3c2)CC1) [Benzoyl-Ile-Lys-Pqa-Arg-His-Tyr-Leu-Asn-Trp-Val-Thr-Arg-Gln-(NMe)Arg-Tyr-NH2]	0.79	0.66	> 5000	> 5000	> 5000
IK[Pqa]RHYLNWVTRQ[NMeR]Y-NH2 (also: mixture: PEG30,000 SPA on N-terminal Ile or on Lys ε-amino (majority on Lys))	–	–	> 5000	> 5000	> 5000
IK[Pqa]RHYLNWVTRQ[NMeR]Y-NH2 (also: mixture: PEG40,000 BTC on N-terminal Ile or on Lys ε-amino)	–	–	> 5000	> 5000	> 5000

Reference: patent US7642244 (Hoffmann-La Roche, dated 2010)
